In the assay the target is tetanus toxoid (TT) (UniProt P04958 2-1315). Put plainly: antigen-specific ELISA, coated at 1:500 dilution (FIG. 4B).
tetanus toxoid (TT), sequence (P04958 2-457 limits assumed, chain 1 of 2): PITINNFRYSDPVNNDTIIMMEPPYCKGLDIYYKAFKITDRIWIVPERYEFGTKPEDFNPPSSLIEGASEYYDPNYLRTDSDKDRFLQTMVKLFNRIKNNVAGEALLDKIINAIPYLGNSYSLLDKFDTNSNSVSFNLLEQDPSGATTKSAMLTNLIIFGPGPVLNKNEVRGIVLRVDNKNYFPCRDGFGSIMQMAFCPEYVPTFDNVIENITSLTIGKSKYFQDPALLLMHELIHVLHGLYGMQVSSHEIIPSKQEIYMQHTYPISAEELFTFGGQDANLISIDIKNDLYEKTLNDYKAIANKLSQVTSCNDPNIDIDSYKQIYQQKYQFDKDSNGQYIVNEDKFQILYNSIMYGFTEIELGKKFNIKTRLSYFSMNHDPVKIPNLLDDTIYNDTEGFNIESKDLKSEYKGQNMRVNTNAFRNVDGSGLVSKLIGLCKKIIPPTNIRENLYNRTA
tetanus toxoid (TT), sequence (P04958 458-1315 limits assumed, chain 2 of 2): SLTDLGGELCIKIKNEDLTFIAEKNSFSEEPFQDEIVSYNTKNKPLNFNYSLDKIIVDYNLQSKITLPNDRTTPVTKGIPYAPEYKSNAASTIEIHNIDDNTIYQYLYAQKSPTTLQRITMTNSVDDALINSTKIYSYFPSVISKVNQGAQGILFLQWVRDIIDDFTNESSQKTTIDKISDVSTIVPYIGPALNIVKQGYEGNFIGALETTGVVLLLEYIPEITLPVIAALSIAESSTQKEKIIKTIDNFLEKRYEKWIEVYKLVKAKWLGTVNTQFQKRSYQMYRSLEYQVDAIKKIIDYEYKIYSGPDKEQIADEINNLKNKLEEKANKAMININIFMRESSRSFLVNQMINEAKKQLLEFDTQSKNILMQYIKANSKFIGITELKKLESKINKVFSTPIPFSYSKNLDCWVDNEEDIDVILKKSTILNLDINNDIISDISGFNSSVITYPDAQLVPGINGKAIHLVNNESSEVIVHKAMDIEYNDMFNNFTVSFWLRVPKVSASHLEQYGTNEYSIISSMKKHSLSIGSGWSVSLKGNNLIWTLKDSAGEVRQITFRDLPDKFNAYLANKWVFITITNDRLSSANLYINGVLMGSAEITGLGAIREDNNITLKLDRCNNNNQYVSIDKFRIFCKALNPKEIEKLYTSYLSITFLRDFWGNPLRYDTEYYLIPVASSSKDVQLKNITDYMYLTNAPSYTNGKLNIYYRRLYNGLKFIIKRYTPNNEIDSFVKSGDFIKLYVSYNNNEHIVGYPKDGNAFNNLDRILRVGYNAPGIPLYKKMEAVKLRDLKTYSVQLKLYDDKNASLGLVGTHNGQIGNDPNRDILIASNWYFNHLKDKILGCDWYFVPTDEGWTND

B1: Fc-TEM1 (soluble recombinant endosialin: full-length TEM1 extracellular domain fused to monomeric murine IgG2b Fc) (Fc fusion, human)
chain: QDPWAAEPRAACGPSSCYALFPRRRTFLEAWRACRELGGDLATPRTPEEAQRVDSLVGAGPASRLLWIGLQRQARQCQLQRPLRGFTWTTGDQDTAFTNWAQPASGGPCPAQRCVALEASGEHRWLEGSCTLAVDGYLCQFGFEGACPALQDEAGQAGPAVYTTPFHLVSTEFEWLPFGSVAAVQCQAGRGASLLCVKQPEGGVGWSRAGPLCLGTGCSPDNGGCEHECVEEVDGHVSCRCTEGFRLAADGRSCEDPCAQAPCEQQCEPGGPQGYSCHCRLGFRPAEDDPHRCVDTDECQIAGVCQQMCVNYVGGFECYCSEGHELEADGISCSPAGAMGAQASQDLGDELLDDGEDEEDEDEAWKAFNGGWTEMPGILWMEPTQPPDFALAYRPSFPEDREPQIPYPEPTWPPPLSAPRVPYHSSVLSVTRPVVVSATHPTLPSAHQPPVIPATHPALSRDHQIPVIAANYPDLPSAYQPGILSVSHSAQPPAHQPPMISTKYPELFPAHQSPMFPDTRVAGTQTTTHLPGIPPNHAPLVTTLGAQLPPQAPDALVLRTQATQLPIIPTAQPSLTTTSRSPVSPAHQISVPAATQPAALPTLLPSQSPTNQTSPISPTHPHSKAPQIPREDGPSPKLALWLPSPAPTAAPTALGEAGLAEHSQRDDRWLDDDD
notes: extracellular domain; Monomeric secreted fusion protein made in CHO cells; also called TEM1-Fcγ; not shown: murine IgG2b Fcγ domain (hinge through CH3), modified: the four cysteine residues responsible for inter-heavy chain disu
As for B1, the binding result was “no binding (tested: 5, 10, 50 ug/ml)”.

For the origin of these results see US20080248034A1 (MORPHOTEK, published 2008).
